Target: KhpB from Thermus thermophilus (Thermus thermophilus HB8)
Experiment: SEC

- stoichiometry N: 2
Substance: KhpB from Thermus thermophilus (natural protein)

Reference: PMC12408800
